Source: patent US8461305B2, “L-fucose α1→6 specific lectin” (J-Oil Mills, Inc., priority 2008, dated 2013)

Tests used:
[1] = hemagglutinating inhibition test with sugars (sugar binding specificity); format: cell-based
Excerpt: The sugar binding specificity of lectin also can be confirmed by using erythrocytes that can be specifically agglutinated by the lectin to investigate the sugar type that may inhibit the agglutination of the erythrocytes and the concentration thereof.
Various monosaccharides, oligosaccharides, and polysaccharides shown in Table 2 and glycoproteins shown in Table 3 were subjected to hemagglutinating inhibition test to evaluate PTL of Example 1 and the SRL of Example 2 with regard to the sugar binding specificity.
On a 96 well U-bottom microtiter plate, double dilution series of 10 μl of monosaccharide, oligosaccharide, polysaccharide, and glycoprotein solutions were prepared. Then, lectin solution adjusted in advance to have titer 4 was added in an amount of 10 μl to the respective wells. Then, the plate was subjected to a still-standing at a room temperature for one hour for sensitization. Then, 10 μl of 4%-red blood cell suspension was added to the respective wells and the plate was further subjected to a still-standing at a room temperature for one hour. […] The lowest concentration showing the inhibition was assumed as the minimum inhibition concentration. The lower the minimum inhibition concentration is, the higher the specificity to lectin is.
For comparison, the sugar binding specificity was evaluated using the following commercially-available lectins: Comparison Example 1: AAL (SEIKAGAKU BIOBUSINESS CORPORATION—J-OIL MILLS, Inc.), Comparison Example 2: AOL (TOKYO CHEMICAL INDUSTRY CO., LTD.—Gekkeikan Sake Company, Ltd.), Comparison Example 3: LCA (SEIKAGAKU BIOBUSINESS CORPORATION—J-OIL MILLS, Inc.), and Comparison Example 4: PSA (SEIKAGAKU BIOBUSINESS CORPORATION—J-OIL MILLS, Inc.).

[2] = frontal affinity chromatography (FAC), association constant to PA sugar chains having other L-fucose; format: binding; conditions: 25 degrees C.
Method: The following section will describe a method of calculating an association constant by frontal affinity chromatography (FAC). This method is based on the following principle. […] Then, the elution front end (front) is observed immediately. When there is an affinity with lectin, the elution of the sugar chain is delayed.
The preparation of a lectin column used in the apparatus is performed in the method as described below. 1. Purified lectin is dissolved in 0.1 to 0.2M of NaHCO3 buffer solution (pH 8.3 to 8.5). 2. The lectin is immobilized, via a lectin primary amino group, a carrier such as NHS activated sepharose. 3. Then, the lectin is blocked by Tris buffer solution including primary amine or ethanolamine for example. 4. Lectin-sepharose is suspended in 10 mM Tris buffer, including 0.8% of NaCl (pH 7.4, TBS). Then, lectin immobilized resin is filled in a miniature column (φ2 mm×10 mm, 31.4 μl). 5. The miniature column in which the lectin immobilized resin is filled is protected by a holder and the lectin column is connected to an FAC automatic analysis apparatus (FAC-1, SHIMADZU CORPORATION).
Then, the elution of the PA sugar chain from the column is detected by a fluorescence detector (excitation wavelength/fluorescence wavelength: 310 nm/380 nm).
Based on the detection data, by using the elution front end (Vo) of the sugar chain (PA rhamnose) not interacting with lectin as a reference, the delay (V−Vo) of the elution front end (V) of a sugar chain interacting with lectin is calculated as an interaction strength. Then, based on the following FAC criteria expressions, the association constant (Ka) between the sugar chain and lectin is calculated based on V−Vo and Bt. If the interaction strength (V−Vo value) and the association constant are higher, a higher affinity is caused between lectin and an L-fucose α1→6 sugar chain.
[In the formula, A means substance used for the elution, Ao means the initial concentration of the substance A, B means a immobilized ligand, V means the elution volume, Vo means the elution front end volume of the substance not interacting with the immobilized ligand B at all, Bt means an effective ligand amount, Kd means a dissociation constant (an inverse of the association constant)].
Pyridylaminated (PA) sugar chains shown in FIG. 1 and FIG. 2 were used to frontal affinity chromatography (FAC) analysis. PA sugars were purchased from TAKARA BIO INC., SEIKAGAKU BIOBUSINESS CORPORATION, and Masuda Chemical Industries co., LTD. PA sugar were also obtained by pyridylaminating, by GlycoTAG®(TAKARA BIO INC.), an unlabeled sugar chain or a sugar chain obtained by subjecting a sugar chain to enzyme digestion for example.
Lectin was dissolved in 0.2 M NaHCO3 buffer solution (pH 8.3) including 0.5 M NaCl and coupled to the NHS-activated sepharose (GE Healthcare Bioscience) by following the manufacturer's instructions. Then, lectin immobilized sepharose was suspended in 10 mM Tris buffer (pH 7.4, TBS) including […] and the resultant matter was filled in a miniature column (φ2 mm×10 mm, 31.4 μl).
Frontal affinity chromatography was performed using FAC automatic analysis apparatus (FAC-1, SHIMADZU CORPORATION). In particular, the above-prepared lectin column was inserted to a stainless steel holder and the holder was connected to FAC-1 apparatus. The flow rate and the column temperature were maintained at 0.125 ml/min and 25 degrees C., respectively. After the miniature column was equilibrated by the TBS, an excessive volume (0.5 ml to 4 ml) of a PA sugar chain (3.75 nM or 7.5 nM) was continuously inputted to the column using an automatic sampling apparatus.
The fluorescent strength of the eluate of the PA sugar (excitation wavelength of 310 nm and fluorescence wavelength of 380 nm) was monitored to measure the interaction strength [a difference of the front end eluate to the standard oligosaccharide (PA rhamnose): V−V0]. […]

[3] = inhibitor: N-Acetylneuraminic acid
[4] = inhibitor: N-acetylgalactosamine
[5] = inhibitor: N-glycolylneuraminic acid
[6] = Sugar chain No. 728 (as listed in Table 5/12)

B1: Aleuria aurantia lectin (protein)
chain: PTEFLYTSKIAAISWAATGGRQQRVYFQDLNGKIREAQRGGDNPWTGGSSQNVIGEAKLFSPLAAVTWKSAQGIQIRVYCVNKDNILSEFVYDGSKWITGQLGSVGVKVGSNSKLAALQWGGSESAPPNIRVYYQKSNGSGSSIHEYVWSGKWTAGASFGSTVPGTGIGATAIGPGRLRIYYQATDNKIREHCWDSNSWYVGGFSASASAGVSIAAISWGSTPNIRVYWQKGREELYEAAYGGSWNTPGQIKDASRPTPSLPDTFIAANSSGNIDISVFFQASGVSLQQWQWISGKGWSIGAVVPTGTPAGW
Q: Which “minimum inhibition concentration of hemagglutination” value (“minimum inhibition concentration” below) ([1]; inhibitor: Fructose) does the source give for B1 here?
A: 25 mM

Q: And the “minimum inhibition concentration” value ([1]; inhibitor: Galactose)?
A: >100 mM

Q: What about the “minimum inhibition concentration” value ([1]; inhibitor: Glucose) of the same molecule?
A: >100 mM

Q: What about the “minimum inhibition concentration” value ([1]; inhibitor: L-fucose) of the same molecule?
A: 0.391 mM

Q: What about the “minimum inhibition concentration” value ([1]; inhibitor: Lactose) of the same molecule?
A: >6 mM

Q: What about the “minimum inhibition concentration” value ([1]; inhibitor: Maltose) of the same molecule?
A: >100 mM

Q: And the “minimum inhibition concentration” value ([1]; inhibitor: Mannose)?
A: 50 mM

Q: And the “minimum inhibition concentration” value ([1]; inhibitor: Melibiose)?
A: >100 mM

Q: What about the “minimum inhibition concentration” value ([1]; inhibitor: Metyl α-mannoside) of the same molecule?
A: >100 mM

Q: And the “minimum inhibition concentration” value [1, 3]?
A: >100 mM

Q: What about the “minimum inhibition concentration” value [1, 4] of the same molecule?
A: >100 mM

Q: What about the “minimum inhibition concentration” value ([1]; inhibitor: N-acetylglucosamine) of the same molecule?
A: >100 mM

Q: And the “minimum inhibition concentration” value [1, 5]?
A: >100 mM

Q: What about the “minimum inhibition concentration” value ([1]; inhibitor: Raffinose) of the same molecule?
A: >100 mM

Q: And the “minimum inhibition concentration” value ([1]; inhibitor: Rhamnose)?
A: >100 mM

Q: What about the “minimum inhibition concentration” value ([1]; inhibitor: Serial lactose) of the same molecule?
A: >6 mM

Q: And the “minimum inhibition concentration” value ([1]; inhibitor: Sucrose)?
A: >100 mM

Q: And the “minimum inhibition concentration” value ([1]; inhibitor: Xylose)?
A: >100 mM

Q: And the “association constant Ka” value ([2]; Sugar chain No. 419)?
A: <1000 M⁻¹

Q: And the “association constant Ka” value ([2]; Sugar chain No. 420)?
A: <1000 M⁻¹

Q: What about the “association constant Ka” value ([2]; Sugar chain No. 718) of the same molecule?
A: 65000 M⁻¹

Q: What about the “association constant Ka” value ([2]; Sugar chain No. 719) of the same molecule?
A: <1000 M⁻¹

Q: What about the “association constant Ka” value ([2]; Sugar chain No. 720) of the same molecule?
A: <1000 M⁻¹

Q: And the “association constant Ka” value ([2]; Sugar chain No. 721)?
A: <1000 M⁻¹

Q: What about the “association constant Ka” value ([2]; Sugar chain No. 722) of the same molecule?
A: <1000 M⁻¹

Q: And the “association constant Ka” value ([2]; Sugar chain No. 723)?
A: 35000 M⁻¹

Q: What about the “association constant Ka” value ([2]; Sugar chain No. 726) of the same molecule?
A: <1000 M⁻¹

Q: And the “association constant Ka” value ([2]; Sugar chain No. 727)?
A: 130000 M⁻¹

Q: What about the “association constant Ka” value [2, 6] of the same molecule?
A: <1000 M⁻¹

Q: What about the “association constant Ka” value ([2]; Sugar chain No. 729) of the same molecule?
A: <1000 M⁻¹

Q: What about the “association constant Ka” value ([2]; Sugar chain No. 730) of the same molecule?
A: <1000 M⁻¹

Q: What about the “association constant Ka” value ([2]; Sugar chain No. 731) of the same molecule?
A: <1000 M⁻¹

Q: And the “association constant Ka” value ([2]; Sugar chain No. 739)?
A: <1000 M⁻¹

Q: What about the “association constant Ka” value ([2]; Sugar chain No. 909) of the same molecule?
A: 310000 M⁻¹

Q: And the “association constant Ka” value ([2]; Sugar chain No. 910)?
A: 90000 M⁻¹

Q: What about the “association constant Ka” value ([2]; Sugar chain No. 931) of the same molecule?
A: <1000 M⁻¹

Q: What about the “association constant Ka” value ([2]; Sugar chain No. 932) of the same molecule?
A: <1000 M⁻¹

Q: And the “association constant Ka” value ([2]; Sugar chain No. 933)?
A: 210000 M⁻¹

B2: Lens culinaris agglutinin (protein)
chain 1: TETTSFSITKFSPDQKNLIFQGDGYTTKGKLTLTKAVKSTVGRALYSTPIHIWDRDTGNVANFVTSFTFVIDAPSSYNVADEFTFFIAPVDTKPQTGGGYLGVFNSKEYDKTSQTVAVEFDTFYNAAWDPSNKERHIGIDVNSIKSVNTKSWNLQNGERANVVIAFNAATNVLTVTLTYP
chain 2: VTSYTLNEVVPLKDVVPEWVRIGFSATTGAEFAAHEVHSWSFHSELGGTSSS
Q: For B2, which “minimum inhibition concentration” value ([1]; inhibitor: Fructose) is on record?
A: >100 mM

Q: And the “minimum inhibition concentration” value ([1]; inhibitor: Galactose)?
A: >100 mM

Q: And the “minimum inhibition concentration” value ([1]; inhibitor: Glucose)?
A: >100 mM

Q: What about the “minimum inhibition concentration” value ([1]; inhibitor: L-fucose) of the same molecule?
A: >100 mM

Q: And the “minimum inhibition concentration” value ([1]; inhibitor: Lactose)?
A: >6 mM

Q: And the “minimum inhibition concentration” value ([1]; inhibitor: Maltose)?
A: 100 mM

Q: What about the “minimum inhibition concentration” value ([1]; inhibitor: Mannose) of the same molecule?
A: 50 mM

Q: What about the “minimum inhibition concentration” value ([1]; inhibitor: Melibiose) of the same molecule?
A: >100 mM

Q: What about the “minimum inhibition concentration” value ([1]; inhibitor: Metyl α-mannoside) of the same molecule?
A: 50 mM

Q: What about the “minimum inhibition concentration” value [1, 3] of the same molecule?
A: >100 mM

Q: What about the “minimum inhibition concentration” value [1, 4] of the same molecule?
A: >100 mM

Q: What about the “minimum inhibition concentration” value ([1]; inhibitor: N-acetylglucosamine) of the same molecule?
A: >100 mM

Q: What about the “minimum inhibition concentration” value [1, 5] of the same molecule?
A: >100 mM

Q: And the “minimum inhibition concentration” value ([1]; inhibitor: Raffinose)?
A: >100 mM

Q: What about the “minimum inhibition concentration” value ([1]; inhibitor: Rhamnose) of the same molecule?
A: >100 mM

Q: What about the “minimum inhibition concentration” value ([1]; inhibitor: Serial lactose) of the same molecule?
A: >6 mM

Q: And the “minimum inhibition concentration” value ([1]; inhibitor: Sucrose)?
A: >100 mM

Q: And the “minimum inhibition concentration” value ([1]; inhibitor: Xylose)?
A: >100 mM

Q: What about the “association constant Ka” value ([2]; Sugar chain No. 419) of the same molecule?
A: <1000 M⁻¹

Q: And the “association constant Ka” value ([2]; Sugar chain No. 420)?
A: <1000 M⁻¹

Q: And the “association constant Ka” value ([2]; Sugar chain No. 718)?
A: <1000 M⁻¹

Q: What about the “association constant Ka” value ([2]; Sugar chain No. 719) of the same molecule?
A: <1000 M⁻¹

Q: And the “association constant Ka” value ([2]; Sugar chain No. 720)?
A: <1000 M⁻¹

Q: And the “association constant Ka” value ([2]; Sugar chain No. 721)?
A: <1000 M⁻¹

Q: And the “association constant Ka” value ([2]; Sugar chain No. 722)?
A: <1000 M⁻¹

Q: What about the “association constant Ka” value ([2]; Sugar chain No. 723) of the same molecule?
A: <1000 M⁻¹

Q: And the “association constant Ka” value ([2]; Sugar chain No. 726)?
A: <1000 M⁻¹

Q: And the “association constant Ka” value ([2]; Sugar chain No. 727)?
A: <1000 M⁻¹

Q: And the “association constant Ka” value [2, 6]?
A: <1000 M⁻¹

Q: And the “association constant Ka” value ([2]; Sugar chain No. 729)?
A: <1000 M⁻¹

Q: And the “association constant Ka” value ([2]; Sugar chain No. 730)?
A: <1000 M⁻¹

Q: And the “association constant Ka” value ([2]; Sugar chain No. 731)?
A: <1000 M⁻¹

Q: And the “association constant Ka” value ([2]; Sugar chain No. 739)?
A: <1000 M⁻¹

Q: What about the “association constant Ka” value ([2]; Sugar chain No. 909) of the same molecule?
A: <1000 M⁻¹

Q: And the “association constant Ka” value ([2]; Sugar chain No. 910)?
A: <1000 M⁻¹

Q: And the “association constant Ka” value ([2]; Sugar chain No. 931)?
A: <1000 M⁻¹

Q: And the “association constant Ka” value ([2]; Sugar chain No. 932)?
A: <1000 M⁻¹

Q: And the “association constant Ka” value ([2]; Sugar chain No. 933)?
A: <1000 M⁻¹
